Experimental data published in paper PMC11969024 (2025).

B1: peptide HD2 (from tick evasin EVA4) / CCL22 (biotinylated, synthetic) (parent complex)
chain 1: EEDDYTAYAPLTCYFT
chain 2: GPYGANMEDSVCCRDYVRYRLPLRVVKHFYWTSDSCPRPGVVLLTFRDKEICADPRVPWVKMILNKLSQ
B2: peptide HD2 (from tick evasin EVA4) / CCL11 (biotinylated, synthetic) (parent complex)
chain 1: EEDDYTAYAPLTCYFT
chain 2: not shown

Variants of: B1
In the case of chain 1 EEDDYTAYAPLTCYFK [chain 1 T16K], the enrichment is reported as 2.2 log2 (difference from the parental peptide).
With chain 1 EEDDYTAYAPLTCYFL [chain 1 T16L] the enrichment was 0.694 log2 (difference from the parental peptide).
With chain 1 EEDDYTAYAPLTCYFI [chain 1 T16I] the enrichment was 0.113 log2 (difference from the parental peptide).
For chain 1 EEDDYTAYAPLTCYFW [chain 1 T16W], the enrichment was -0.731 log2 (difference from the parental peptide).
With chain 1 EEDDYTAYAELTCYFT [chain 1 P10E] the enrichment was -6.9 log2 (difference from the parental peptide).
With chain 1 EEDDYTAYAPLTCDFT [chain 1 Y14D] the enrichment was -4.53 log2 (difference from the parental peptide).
For chain 1 EEDDYTAYAPLTCHFT [chain 1 Y14H], the enrichment was 2.15 log2 (difference from the parental peptide).
In the case of chain 1 EEDDYTAYAPLTCCFT [chain 1 Y14C], the enrichment is reported as -2.09 log2 (difference from the parental peptide).
For chain 1 IEDDYTAYAPLTCYFT [chain 1 E1I], the enrichment was -1.58 log2 (difference from the parental peptide).
For chain 1 REDDYTAYAPLTCYFT [chain 1 E1R], the enrichment was -5.65 log2 (difference from the parental peptide).
In the case of chain 1 EEDDYTAYAPLDCYFT [chain 1 T12D], the enrichment is reported as -6.65 log2 (difference from the parental peptide).
For chain 1 EEDDYTAYAPLLCYFT [chain 1 T12L], the enrichment was 0.0229 log2 (difference from the parental peptide).
In the case of chain 1 EEDDYTAYAPLGCYFT [chain 1 T12G], the enrichment is reported as -10.3 log2 (difference from the parental peptide).
chain 1 EEDDYTAYAPLCCYFT [chain 1 T12C] was tested, and the enrichment was -1.01 log2 (difference from the parental peptide).
For chain 1 EEDYYTAYAPLTCYFT [chain 1 D4Y], the enrichment was -4.71 log2 (difference from the parental peptide).
In the case of chain 1 EEDAYTAYAPLTCYFT [chain 1 D4A], the enrichment is reported as -8.08 log2 (difference from the parental peptide).
For chain 1 EEDFYTAYAPLTCYFT [chain 1 D4F], the enrichment was -7.18 log2 (difference from the parental peptide).
chain 1 EEDNYTAYAPLTCYFT [chain 1 D4N] was tested, and the enrichment was -4.06 log2 (difference from the parental peptide).
chain 1 ELDDYTAYAPLTCYFT [chain 1 E2L] was tested, and the enrichment was -2.82 log2 (difference from the parental peptide).
With chain 1 ETDDYTAYAPLTCYFT [chain 1 E2T] the enrichment was -3.84 log2 (difference from the parental peptide).
chain 1 EQDDYTAYAPLTCYFT [chain 1 E2Q] was tested, and the enrichment was -3.9 log2 (difference from the parental peptide).
chain 1 ESDDYTAYAPLTCYFT [chain 1 E2S] was tested, and the enrichment was -3.12 log2 (difference from the parental peptide).
In the case of chain 1 EWDDYTAYAPLTCYFT [chain 1 E2W], the enrichment is reported as -1.93 log2 (difference from the parental peptide).
chain 1 EVDDYTAYAPLTCYFT [chain 1 E2V] was tested, and the enrichment was -2.63 log2 (difference from the parental peptide).
For chain 1 ENDDYTAYAPLTCYFT [chain 1 E2N], the enrichment was -3.61 log2 (difference from the parental peptide).
In the case of chain 1 EEHDYTAYAPLTCYFT [chain 1 D3H], the enrichment is reported as -5.38 log2 (difference from the parental peptide).
With chain 1 EEEDYTAYAPLTCYFT [chain 1 D3E] the enrichment was 1.1 log2 (difference from the parental peptide).
For chain 1 EEADYTAYAPLTCYFT [chain 1 D3A], the enrichment was -3.86 log2 (difference from the parental peptide).
chain 1 EEGDYTAYAPLTCYFT [chain 1 D3G] was tested, and the enrichment was -4.28 log2 (difference from the parental peptide).
For chain 1 EEDDTTAYAPLTCYFT [chain 1 Y5T], the enrichment was -6.08 log2 (difference from the parental peptide).
With chain 1 EEDDHTAYAPLTCYFT [chain 1 Y5H] the enrichment was -5 log2 (difference from the parental peptide).
With chain 1 EEDDDTAYAPLTCYFT [chain 1 Y5D] the enrichment was -5.05 log2 (difference from the parental peptide).
With chain 1 EEDDYTAYAPLTCYRT [chain 1 F15R] the enrichment was 0.817 log2 (difference from the parental peptide).
chain 1 EEDDYTAYAPLTCYET [chain 1 F15E] was tested, and the enrichment was -3.12 log2 (difference from the parental peptide).
chain 1 EEDDYTAYAPLTCYST [chain 1 F15S] was tested, and the enrichment was -0.181 log2 (difference from the parental peptide).
With chain 1 EEDDYTALAPLTCYFT [chain 1 Y8L] the enrichment was -7.77 log2 (difference from the parental peptide).
In the case of chain 1 EEDDYTAAAPLTCYFT [chain 1 Y8A], the enrichment is reported as -7.77 log2 (difference from the parental peptide).
With chain 1 EEDDYTAFAPLTCYFT [chain 1 Y8F] the enrichment was -0.0331 log2 (difference from the parental peptide).
For chain 1 EEDDYTADAPLTCYFT [chain 1 Y8D], the enrichment was -7.54 log2 (difference from the parental peptide).
With chain 1 EEDDYLAYAPLTCYFT [chain 1 T6L] the enrichment was -2.3 log2 (difference from the parental peptide).
For chain 1 EEDDYSAYAPLTCYFT [chain 1 T6S], the enrichment was 3.56 log2 (difference from the parental peptide).
chain 1 EEDDYTAYLPLTCYFT [chain 1 A9L] was tested, and the enrichment was -6.75 log2 (difference from the parental peptide).
In the case of chain 1 EEDDYTAYNPLTCYFT [chain 1 A9N], the enrichment is reported as -4.75 log2 (difference from the parental peptide).
In the case of chain 1 EEDDYTAYGPLTCYFT [chain 1 A9G], the enrichment is reported as -7.69 log2 (difference from the parental peptide).
For chain 1 EEDDYTAYSPLTCYFT [chain 1 A9S], the enrichment was -2.79 log2 (difference from the parental peptide).
With chain 1 EEDDYTAYWPLTCYFT [chain 1 A9W] the enrichment was -3.76 log2 (difference from the parental peptide).
chain 1 EEDDYTAYAPLTFYFT [chain 1 C13F] was tested, and the enrichment was -6.63 log2 (difference from the parental peptide).
In the case of chain 1 EEDDYTAYAPLTMYFT [chain 1 C13M], the enrichment is reported as -3.12 log2 (difference from the parental peptide).
For chain 1 EEDDYTAYAPLTAYFT [chain 1 C13A], the enrichment was -6.82 log2 (difference from the parental peptide).
In the case of chain 1 EEDDYTAYAPLTSYFT [chain 1 C13S], the enrichment is reported as -3.73 log2 (difference from the parental peptide).
For chain 1 EEDDYTTYAPLTCYFT [chain 1 A7T], the enrichment was -1.44 log2 (difference from the parental peptide).
For chain 1 EEDDYTEYAPLTCYFT [chain 1 A7E], the enrichment was 1.56 log2 (difference from the parental peptide).
For chain 1 EEDDYTPYAPLTCYFT [chain 1 A7P], the enrichment was 1.84 log2 (difference from the parental peptide).
chain 1 EEDDYTIYAPLTCYFT [chain 1 A7I] was tested, and the enrichment was -3 log2 (difference from the parental peptide).

Variants of: B2
In the case of chain 1 P10Y, the enrichment is reported as -5.97 log2 (difference from the parental peptide).
In the case of chain 1 F15N, the enrichment is reported as -1.58 log2 (difference from the parental peptide).
chain 1 F15H was tested, and the enrichment was -0.581 log2 (difference from the parental peptide).
With chain 1 F15K the enrichment was -4.78 log2 (difference from the parental peptide).
For chain 1 F15V, the enrichment was 0.59 log2 (difference from the parental peptide).
With chain 1 A9Y the enrichment was -4.85 log2 (difference from the parental peptide).
In the case of chain 1 A9S, the enrichment is reported as -1.28 log2 (difference from the parental peptide).
In the case of chain 1 A9M, the enrichment is reported as -3.46 log2 (difference from the parental peptide).
With chain 1 A9R the enrichment was -1.6 log2 (difference from the parental peptide).
In the case of chain 1 A9V, the enrichment is reported as -5.98 log2 (difference from the parental peptide).
With chain 1 A9E the enrichment was 0.893 log2 (difference from the parental peptide).
With chain 1 Y8N the enrichment was -5.38 log2 (difference from the parental peptide).
With chain 1 Y8A the enrichment was -4.4 log2 (difference from the parental peptide).
With chain 1 Y8W the enrichment was -1.91 log2 (difference from the parental peptide).
For chain 1 Y8V, the enrichment was -8.13 log2 (difference from the parental peptide).
chain 1 L11R was tested, and the enrichment was -0.735 log2 (difference from the parental peptide).
For chain 1 L11N, the enrichment was -4.38 log2 (difference from the parental peptide).
In the case of chain 1 L11S, the enrichment is reported as -0.475 log2 (difference from the parental peptide).
For chain 1 A7R, the enrichment was 0.794 log2 (difference from the parental peptide).
For chain 1 A7F, the enrichment was -1.71 log2 (difference from the parental peptide).
With chain 1 A7P the enrichment was 0.578 log2 (difference from the parental peptide).
With chain 1 A7S the enrichment was 0.886 log2 (difference from the parental peptide).
In the case of chain 1 A7E, the enrichment is reported as 2.59 log2 (difference from the parental peptide).
For chain 1 A7N, the enrichment was 1.29 log2 (difference from the parental peptide).
With chain 1 A7M the enrichment was 1.99 log2 (difference from the parental peptide).
With chain 1 E1G the enrichment was -0.291 log2 (difference from the parental peptide).
chain 1 E1S was tested, and the enrichment was -0.538 log2 (difference from the parental peptide).
In the case of chain 1 E1T, the enrichment is reported as -0.645 log2 (difference from the parental peptide).
For chain 1 E1F, the enrichment was -2.2 log2 (difference from the parental peptide).
With chain 1 T12F the enrichment was -3.13 log2 (difference from the parental peptide).
With chain 1 T12P the enrichment was -3.61 log2 (difference from the parental peptide).
With chain 1 T12K the enrichment was -5.35 log2 (difference from the parental peptide).
For chain 1 D3M, the enrichment was -2.72 log2 (difference from the parental peptide).
With chain 1 D3I the enrichment was -3.65 log2 (difference from the parental peptide).
chain 1 Y14D was tested, and the enrichment was -4.78 log2 (difference from the parental peptide).
For chain 1 Y14V, the enrichment was -3.71 log2 (difference from the parental peptide).
chain 1 Y14T was tested, and the enrichment was -4.02 log2 (difference from the parental peptide).
chain 1 Y14F was tested, and the enrichment was 0.149 log2 (difference from the parental peptide).
With chain 1 Y14R the enrichment was -8.35 log2 (difference from the parental peptide).
For chain 1 C13S, the enrichment was -5.22 log2 (difference from the parental peptide).
chain 1 C13Y was tested, and the enrichment was -6.32 log2 (difference from the parental peptide).
For chain 1 C13M, the enrichment was -6.39 log2 (difference from the parental peptide).
In the case of chain 1 C13Q, the enrichment is reported as -8.37 log2 (difference from the parental peptide).
For chain 1 T6N, the enrichment was 1.61 log2 (difference from the parental peptide).
For chain 1 T6M, the enrichment was -0.715 log2 (difference from the parental peptide).
For chain 1 T6I, the enrichment was -5.35 log2 (difference from the parental peptide).
With chain 1 T6L the enrichment was -2.13 log2 (difference from the parental peptide).
chain 1 D4W was tested, and the enrichment was -3.16 log2 (difference from the parental peptide).
For chain 1 D4P, the enrichment was -3.25 log2 (difference from the parental peptide).
In the case of chain 1 D4L, the enrichment is reported as -4.32 log2 (difference from the parental peptide).
For chain 1 D4I, the enrichment was -4.32 log2 (difference from the parental peptide).
chain 1 D4G was tested, and the enrichment was -4.8 log2 (difference from the parental peptide).
In the case of chain 1 D4T, the enrichment is reported as -4.2 log2 (difference from the parental peptide).
In the case of chain 1 D4S, the enrichment is reported as -3.54 log2 (difference from the parental peptide).
In the case of chain 1 D4K, the enrichment is reported as -5.45 log2 (difference from the parental peptide).
For chain 1 D4F, the enrichment was -4.42 log2 (difference from the parental peptide).
In the case of chain 1 D4Y, the enrichment is reported as -1.9 log2 (difference from the parental peptide).
For chain 1 T16K, the enrichment was -0.03 log2 (difference from the parental peptide).
In the case of chain 1 T16L, the enrichment is reported as 0.412 log2 (difference from the parental peptide).
For chain 1 T16Q, the enrichment was 1.62 log2 (difference from the parental peptide).
For chain 1 T16A, the enrichment was 1.44 log2 (difference from the parental peptide).
chain 1 T16C was tested, and the enrichment was -0.0325 log2 (difference from the parental peptide).
With chain 1 T16W the enrichment was -0.88 log2 (difference from the parental peptide).
In the case of chain 1 E2V, the enrichment is reported as -1.61 log2 (difference from the parental peptide).
chain 1 E2D was tested, and the enrichment was 1.39 log2 (difference from the parental peptide).
With chain 1 E2W the enrichment was -2.09 log2 (difference from the parental peptide).
For chain 1 E2T, the enrichment was -2.27 log2 (difference from the parental peptide).
In the case of chain 1 E2H, the enrichment is reported as -2.49 log2 (difference from the parental peptide).
With chain 1 E2A the enrichment was -0.825 log2 (difference from the parental peptide).
With chain 1 E2R the enrichment was -4.24 log2 (difference from the parental peptide).
chain 1 E2L was tested, and the enrichment was -1.7 log2 (difference from the parental peptide).
With chain 1 Y5N the enrichment was -5.96 log2 (difference from the parental peptide).
With chain 1 Y5H the enrichment was -6.32 log2 (difference from the parental peptide).
In the case of chain 1 Y5M, the enrichment is reported as -1.54 log2 (difference from the parental peptide).
chain 1 Y5F was tested, and the enrichment was 0.0717 log2 (difference from the parental peptide).
In the case of chain 1 Y5A, the enrichment is reported as -6.65 log2 (difference from the parental peptide).
chain 1 Y5S was tested, and the enrichment was -5.35 log2 (difference from the parental peptide).
For chain 1 Y5G, the enrichment was -5.68 log2 (difference from the parental peptide).
